T1: human IGFBP6 (human, UniProt P24592 28-240, limits assumed)
T1 construct: Bought protein
T1 sequence (looked up): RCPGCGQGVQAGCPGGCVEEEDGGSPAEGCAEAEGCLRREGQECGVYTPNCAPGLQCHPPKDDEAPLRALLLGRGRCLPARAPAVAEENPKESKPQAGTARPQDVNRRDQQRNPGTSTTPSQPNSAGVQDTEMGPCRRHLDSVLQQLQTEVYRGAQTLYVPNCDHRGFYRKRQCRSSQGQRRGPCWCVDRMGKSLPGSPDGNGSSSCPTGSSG

T2: human IGFBP4 (human, UniProt P22692 22-258)
T2 construct: Bought protein
T2 sequence (looked up): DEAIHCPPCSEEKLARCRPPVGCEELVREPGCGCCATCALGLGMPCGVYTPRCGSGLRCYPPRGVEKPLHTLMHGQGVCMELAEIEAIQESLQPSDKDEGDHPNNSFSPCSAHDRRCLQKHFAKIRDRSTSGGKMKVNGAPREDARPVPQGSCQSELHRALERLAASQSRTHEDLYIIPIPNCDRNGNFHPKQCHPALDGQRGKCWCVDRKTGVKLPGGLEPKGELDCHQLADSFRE

T3: human IGFBP1 (human, UniProt P08833 26-259)
T3 construct: Bought protein
T3 sequence (looked up): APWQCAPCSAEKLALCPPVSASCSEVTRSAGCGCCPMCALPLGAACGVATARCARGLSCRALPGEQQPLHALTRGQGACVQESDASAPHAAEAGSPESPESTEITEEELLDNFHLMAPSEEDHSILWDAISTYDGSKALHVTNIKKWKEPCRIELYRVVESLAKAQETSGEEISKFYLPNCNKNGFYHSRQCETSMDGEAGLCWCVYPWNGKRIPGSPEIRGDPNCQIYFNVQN

T4: human IGFBP2 (human, UniProt P18065 37-325, limits assumed)
T4 construct: Bought protein
T4 sequence (looked up): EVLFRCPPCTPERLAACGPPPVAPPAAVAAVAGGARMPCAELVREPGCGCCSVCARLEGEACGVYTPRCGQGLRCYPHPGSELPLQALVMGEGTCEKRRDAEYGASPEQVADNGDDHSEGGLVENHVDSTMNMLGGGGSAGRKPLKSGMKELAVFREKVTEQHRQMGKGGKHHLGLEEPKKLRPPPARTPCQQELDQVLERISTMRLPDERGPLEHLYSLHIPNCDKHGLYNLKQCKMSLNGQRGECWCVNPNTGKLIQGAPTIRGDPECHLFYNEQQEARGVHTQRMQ


Key:
Assay in all cases: ELISA, scFv, secondary screening
human IGFBP6 = biological target: T1, human IGFBP6
Description: (§1) At the end of the discovery process, each selection output was screened for antigen-specific antibodies and the binding characteristics of monoclonal antibody clones was analysed. For this purpose, 3072 single colonies were used for scFv antibody production. […] 192 of those ELISA positive clones were selected for a secondary screening. For that purpose, a second batch of scFv were produced and tested on a broader panel of antigens: Streptavidin+biotinylated human IGFBP5, Streptavidin+biotinylated murine IGFBP5, Streptavidin, BSA, Human IGFBP1, Human IGFBP2, Human IGFBP3, Human IGFBP4, Human IGFBP5 and Human IGFBP6. […] Binding to human IGFBP1, human IGFBP2, human IGFBP3, human IGFBP4 and human IGFBP6 was not detected. […] The scFv DNA sequence was amplified by PCR and cloned into YUMAB's mammalian scFv-Fc expression vector, resulting in a genetic fusion of the scFv with a human IgG4 Fc. Bacterial clones with a correctly cloned scFv gene were used for isolation of transfection grade DNA. The DNA was used for the transient transfection of HEK cells which produced and secreted the antibody into the culture medium. The antibodies were purified by affinity chromatography (Protein A) and re-buffered in PBS. The protein concentration was determined by UV/VIS spectrometry and purity was checked by Coomassie staining. 13 of the 15 antibodies could be successfully produced in the scFv-Fc format.

human IGFBP5 = biological target: T5, human IGFBP5 (human, UniProt P24593 21-272)
T5 construct: Bought protein; in BLI it was in solution; also called hIGFBP-5
Description: as §1

human IGFBP4 = biological target: T2, human IGFBP4
Description: as §1

human IGFBP1 = biological target: T3, human IGFBP1
Description: as §1

mouse IGFBP5 = biological target: T6, mouse IGFBP5 (mouse, UniProt Q07079 20-271)
T6 construct: Bought protein; in solution in BLI; also called mIGFBP-5; murine IGFBP5
Description: as §1

human IGFBP3 = biological target: T7, human IGFBP3 (human, UniProt P17936 28-291)
T7 construct: Bought protein
Description: as §1

human IGFBP2 = biological target: T4, human IGFBP2
Description: as §1

T7 sequence (P17936 28-291 limits assumed): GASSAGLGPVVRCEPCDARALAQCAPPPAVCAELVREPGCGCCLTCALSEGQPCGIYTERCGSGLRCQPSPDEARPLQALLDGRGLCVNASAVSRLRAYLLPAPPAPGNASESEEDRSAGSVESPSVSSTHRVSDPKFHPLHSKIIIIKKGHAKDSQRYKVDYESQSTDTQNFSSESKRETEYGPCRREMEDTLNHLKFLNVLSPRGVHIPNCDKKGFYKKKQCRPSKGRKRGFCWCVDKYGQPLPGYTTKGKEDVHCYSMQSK
T5 sequence (P24593 21-272 limits assumed): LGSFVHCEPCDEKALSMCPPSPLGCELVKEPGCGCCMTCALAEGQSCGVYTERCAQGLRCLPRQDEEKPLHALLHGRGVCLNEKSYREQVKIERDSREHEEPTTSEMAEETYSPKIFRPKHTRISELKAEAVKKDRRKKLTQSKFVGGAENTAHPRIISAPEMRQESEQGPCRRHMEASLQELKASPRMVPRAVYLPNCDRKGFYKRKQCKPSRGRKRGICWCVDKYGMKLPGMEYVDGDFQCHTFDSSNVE
T6 sequence (Q07079 20-271 limits assumed): as the sequence (P24593 21-272 limits assumed) above, with R87G, V90T, I116V, I157V, S159P, L183F, T245A counted along it

| Binder | binding result (human IGFBP6) | binding result (human IGFBP5) | binding result (human IGFBP4) | binding result (human IGFBP1) | binding result (mouse IGFBP5) | binding result (human IGFBP3) | binding result (human IGFBP2) |
| --- | --- | --- | --- | --- | --- | --- | --- |
| C12 scFv (scFv, V domains shown, scFv as screened by ELISA) VH: QVQLVQSGAEVKKPGSSVKVSCKASGGTFSSYAISWVRQAPGQGLEWMGGIIPIFGTANYAQKFQGRVTITADESTSTAYMELSSLRSEDTAVYYCATLGRELSFDYWGQGTLVTVSS VL: DIVMTQSPSSLSASVGDRVTITCRASQSISSYLNWYQQKPGKAPKLLIYAASSLQSGVPSRFSGSGSGTDFTLTISSLQPEDFATYYCQQSYSESWTFGQGTTVDIK | no binding | binds | no binding | no binding | binds | no binding | no binding |
| E02 scFv (scFv, V domains shown, scFv as screened by ELISA) VH: QMQLVQSGAEVKKPGSSVKVSCKASGGTFSSYAISWVRQAPGQGLEWMGGIIPIFGTANYAQKFQGRVTITADESTSTAYMELSSLRSEDTAVYYCATMSVAGPSISFDYWGQGTLVTVSS VL: DIQMTQSPSSLSASVGDRVAIPCRASQSISSYLNWYQQKPGKAPKLLIYAASSLQRGVPSRFSGSGSGTDFTLTISSLQPEDFATYYCQETYSNLWTFGQGTKVEIK | no binding | binds | no binding | no binding | binds | no binding | no binding |
| F04 scFv (scFv, V domains shown, scFv as screened by ELISA) VH: not shown VL: SSELTQDPSVSVALGQTVTITCQGDSVRKYYTNWYQQKPGQAPILVLYGKNYRPSGIPDRFSGSTSGDTAYLTITGAQAEDAADYYCHSRDTSDIHLNVFGTGTKVTVL | no binding | binds | no binding | no binding | binds | no binding | no binding |
| D10 scFv (scFv, V domains shown, scFv as screened by ELISA) VH: QVQLVQSGAEVKKPGASVKVSCKASGYTFTSYGISWVRQAPGQGLEWMGWISAYNGNTNYAQKLQGRVTMTTDTSTSTAYMELRSLRSDDTAVYYCARDRYLGWFDPWGQGTLVTVSS VL: QSALTQPASVSGSPGQSITISCTGTSSDVGGYNYVSWYQQHPGKAPKLMIYEVSNRPSGVSNRFSGSKSGNTASLTISGLQAEDEADYYCSSYTSSSTPYVFGTGTKLTVL | no binding | binds | no binding | no binding | binds | no binding | no binding |
| D12 scFv (scFv, V domains shown, scFv as screened by ELISA) VH: not shown VL: ETTLTQSPGTLSVSPGDRATLSCRASQSLSADYLAWYQQKPGQAPRLLIYGASTRATGIPARFSGSGSGTEFTLTVSSLQSEDFAVYYCQQNDNWPYTFGQGTKLEIK | no binding | binds | no binding | no binding | binds | no binding | no binding |
| C02 scFv (scFv, V domains shown, scFv as screened by ELISA) VH: QVQLVQSGAEVKKPGASVKVSCKASGYTFTSYGISWVRQAPGQGLEWMGWISAYNGNTNYAQKLQGRVTMTTDTSTSTAYMELRSLRSDDTAVYYCARGRGVIDYWGQGTLVTVSS VL: not shown | no binding | binds | no binding | no binding | binds | no binding | no binding |

Continued, values first:

| binding result (human IGFBP6) | binding result (human IGFBP5) | binding result (human IGFBP4) | binding result (human IGFBP1) | binding result (mouse IGFBP5) | binding result (human IGFBP3) | binding result (human IGFBP2) | Binder |
| --- | --- | --- | --- | --- | --- | --- | --- |
| no binding | binds | no binding | no binding | binds | no binding | no binding | C11 scFv (scFv, V domains shown, scFv as screened by ELISA) VH: EVQLVESGGGVVQPGRSLRLSCAASGFTFSSYGMHWVRQAPGKGLEWVAVISYDGSNKYYADSVKGRFTISRDNSKNTLYLQMNSLRAEDTAVYYCARGDYSDTSGTDFFQHWGQGTQVTVSS VL: not shown |
| no binding | binds | no binding | no binding | binds | no binding | no binding | E05 scFv (scFv, V domains shown, scFv as screened by ELISA) VH: EVQLVESGGGLVQPGGSLKLSCAASGFTFSGYGMNWVRQAPGKGLEWVSYVGSSSSTIYYADSVKGRFTISRDNANNSLYLQMNSLRAEDTAVYYCARGLGGNWGQGTMVTVSS VL: QPGLTQPPSASGAPGQRVTISCSGSRSNIGSNYVHWYQQLPGTAPKLIIYRNDQRPSGVPARFSASKSGTSASLAISGLRSEDEADYYCAAWDDGLSVLFGGGTKLTVL |
| no binding | binds | no binding | no binding | binds | no binding | no binding | F05 scFv (scFv, V domains shown, scFv as screened by ELISA) VH: QVQLVQSGAEVKKPGASVKVSCKASGYTFTSYGISWVRQAPGQGLEWMGWISAYNGNTNYAQKLQGRVTMTTDTSTSTAYMELRSLRSDDTAVYYCARGRGSFDPWGQGTLVTVSS VL: not shown |
| no binding | binds | no binding | no binding | binds | no binding | no binding | E03 scFv (scFv, V domains shown, scFv as screened by ELISA) VH: QVQLVQSGAEVKKPGSSVKVSCKASGGTFSSYAISWVRQAPGQGLEWMGGITPIFGTANYAQKFQGRVTITADESTSTAYMELSSLRSEDTAVYYCARAGILTGYYFDYWGQGTLVTVSS VL: NFMLTQPHSVSESPGKTVTISCTRSSGSIASNYVQWYQQRPGSSPTTVIYEDNQRPSGVPDRFSGSIDSSSNSASLTISGLKTEDEADYYCQSYDSSNRPWVFGGGTKLTVL |
| no binding | binds | no binding | no binding | binds | no binding | no binding | B11 scFv (scFv, V domains shown) VH: QVQLVQSGAEVKKPGSSVKVSCKASGGTFSSYAISWVRQAPGQGLEWMGGIIPIFGTANYAQKFQGRVTITADKSTSTAYMELSSLRSEDTAVYYCARNVRLPGWFDPWGQGTLVTVSS VL: not shown |
| no binding | – | no binding | no binding | – | no binding | no binding | B09 scFv (scFv, V domains shown, scFv as screened by ELISA) VH: QVQLVQSGAEVKKPGASVKVSCKASGYTFTSYGISWVRQAPGQGLEWMGWISAYNGNTNYAQKLQGRVTMTTDTSTSTAYMELRSLRSDDTAVYYCARDLAVGTHGDYWGQGTLVTVSS VL: QSALTQPASVSGSPGQSITISCTGTSSDVGGYNYVSWYQQHPGKAPKLMIYEVSNRPSGVSNRFSGSKSGNTASLTISGLQAEDEADYYCSSYTSSSTLEVVFGGGTKLTVL |

Source: US12715909 (ENTHERA S R L, dated 2026)
